Assay results taken from the DeepSol protein solubility set.

Assay: soluble on expression in E. coli; label from the status in PepcDB or PDB records

Sequence | soluble on expression in E. coli
MGSDKIHHHHHHMRVLHFYKTYLSETVGGIEQVIFQLCESSGSWGIDNHVLTLSSDPHPPVVPFGGHVVHRARLDLQLASTGFSLSVFKQFRELAAEADVVNYHFPWPFMDLVHFLTGMNKPSVVTYHSDIIRQRVLLKLYRPLMSRFLHSVDRIVAASPNYFSTSDVLRQYREKTRVITYGLDKDGYPKPATQRLEHWREKLGPRFFLFVGVMRYYKGLHILLDALQGTDYPVVIVGAGPLQAELYAQAAALGLRNVHFLGRVDDEDKVALLQLSYAMVFPSHLRSEAFGISLLEGAMYGKPMISSEIGTGTSYINIHGETGLVVPPSQPAAFRQAMRWLWEHPQQAEEMGRNAEARYRQLFTAEEMGRRWSELYRELLEEKASSRYVKAAR | not soluble
HHPEAGNFKQRVILSHVGFDRPTVLVTEGYTAHYATHPRYQEELSKLFNANLVFVEYRYFGESMPKPCNWDYLTVENSLYDLHHVTTTLKQLYDEKWIATGISKGGQTTMFYRTYFPDDVDISVPYVAPLNQSLEDGRHEPFIANKVSTPENRKRVENFQLEVLKRKSRLLPIFEKYCSDKGYTFRIPIAEVYDFNVLEYSFALWQWGTPVNKIPETNADDHTLFKHFMAICEPDYFSEQSPYPSFNVQAAKELGYYGYDIKPFKKYLTIKSSRDYLHKVMLPPELSNLKFDKTLYNKVVKFLKENDPEMIYIYGGDDPWTASGVTWLKNKKNIKVYVLPGGSHTTRIGSFDTDTQEEIKTQINAWLNKE | not soluble
MVIRMAYSELYWQKEEVMPKKELEELQLKRLRWVVRHAYENVAHYRRKLKEAGVHPDDIKKREDIAKIPFTTKKDFAENYPFGLFAVPKEEIVRLHTSSGTTGKPKVVGYTANDLENWINLVARCLYMVGVRKHDIFQNMANYAFFTGGLGIHDGAERIGAMVIPAGVGNTERQVRCMADFGTTAIHSTPSYALHVKEVAEELGVDDKLSLRIGCFGAEPWSENTRKRLEDAFNIKAFDSYGLSEMNGPGVAFECEEQHGLHIWADHYFIEIIDPQTGEPLSEGEKGELVLTPLTKEALPVLRYRTGDITYIMDDECSCGRTHPKIHRILGRSDDMIIVRGINVFPSQIEHVLMQIPEVGDHFQVVITRNGTLDEITVRVEVRDELFTGELFDLQRLQQKVQRELQKELGLRTNVELVEKGTIERSKGKAKRVLDLREEL | not soluble
MSLTPSIISIQSQVVHGHVGNSAAVLPMQGHGVTVAAVPTTLLSNHPGFETVRGRVLESELVGDLLRGVEERGLIETSGYIVSGYLGSRANGEVVASFVKRARRLNPDITYICDPVMGDAALGVFVADQVVSCLCDDLIPLADLLTPNQFEVGLIAGRPLSTWRELEAAVLKIRAPRGARLVVTGCALSDTPDGALENIVFDDKTHTRLTSPRLPLAPAGTGDLYTGLLTAKLARGHTLVEAACHAATSVLDVLQQTMAAGEHEMQLARAITTLGPACKETSEGHHHHHH | soluble
MRGGPVNSHDVTDEQWEGLAQVVPLRGRDAWPSAVGHRSIPEAQTEARRRFVVLRVNIFADARDVAETLMRGIPVLLDLTSAETEVAKRVLDFSTGVVFGLASGMHRVDRNVFLLTPPGTEVQGLMEGVGVPGILEHHHHHH | not soluble
MPGGRRRGFDDQVALQTAMELFWRQGYEGTSITDLTKALGINPPSLYAAFGSKRDLFEKTLDRYMCERTLQLEEAMVRPTAHEAVLDFLTGRVEVFTAPGQPFGCMTVQAGLASGEPHHEIVDLLTAAREQMRQTVLDRFEKALADGDLPAGTDCTALARYVMAAVYGLSVEAASGAPREELTAAAILAAQVVPRAQM | soluble
MEAKQTVFVNEFTNGILDPHGNMLGPVQDGGYIVANTTPGCWGPMITPCIRGGHEVTKPVFVEGAEVGDAIAIKIKSIRVTSIATSSGNDKPMEGRFVGDPFVAVKCPQCGTMYPETKIEGIGPEAIRCANCGADVTPFVFTNGYTMTFDPNRQIGVTVHKEAAEHIARQGRYYMATPDNSVQNPIVTFAPHDLVGTVARLRPFLGQLGTTPARPLPDSHNAGDFGQFLINAPHEYGITKEQLEDRTDGHMDINRVREGAVLICPVKVRGGGVYLGDMHAMQGDGEIAGHTTDVSGIVTLQVKVIKGLTIDGPILLPVAEDLPYLAKPLTKKEKEIALDLAQSWGVDKLEESLPISFVGTGANLNEATENGLQRAAKTLGISVPEVMNRATITGAIEIGRHPGVITVTFLCPIRYLDKISLTSLVYDQYRSVLE | not soluble
MKNLPIGGVWKGKVKLHSNSPAQDYFANITLNTLDPNHIDVFFPEFAHATPRVQLDLHPTGSVNGSNYAQDLTMLDMCLYDGFNGNAISYEIMLKDEGRPAAGRRDGYFSIYRQGGTTTDEGERIDYRVKMYNPETGGQIDVRNNENMVWNSINLKRVRPVVLPGIRYAVMCVPTPLTLAVDKFSVMDKQAGYYMGKLSVIFTPSLPTIN | not soluble
MNDGYKQNDIVNHEAYEELEVAEEQIIYCQEEYNDGPGTMVQVQEQTDVPCYVMEGTYFTPENIYAANQDHSVCHFCKEDLTNKRFYNHLFDHHGFTKQQCEMMKQQKRLGRPNPKRKSLHSCENCGMEFITKTGLTSHLKKDNSPCARVDEMAVGGSSVSNIVCPSYGCDKNVPTYLDLAIHVDTEHRDLSRATDSFRIRRVTFQDKAGFMKWKKQMEKSTNSEFFLRTSQKVSFAIRTMLYKCLFSNSRGQSKGRRCEQCPAFIKCCMRNHGQYEVVACFGHLGHEHPTETEIARQMRIEKYREIDALQVRESRMHNQHHMNVRPKQIIVDQYGHPTHPNDEMMILMPVGEEVVEEDAFTSVVVDDADDEIVGPRAQQETPALTRQVYIPTSNHHASSSHY | not soluble
PNAIVNRSIPEGVDVFEISGPLFFGAASKFKDAMHVVEKAPSIRILRMRKVMSIDATGLNMLKELFNDCRKSGTTLILSGVHTQPLFAMQQYGLADEIGEENIFGNIDDALDRARSLLGLPVQGRPAGF | not soluble
MGSDKIHHHHHHMSTKHAIAAAHFLENKENEAWHDHTLWMVRTKRDKMSHSLPEWERLRELASEIKLYSNSHLDTLLEEFEKNAIANGAIVHWAKDAEEHNEIVLRILRQHDARNLIKSKSMLTEECHMNEFLMSKGIDVVESDLGERILQLMHLAPSHIVMPAIHIKREQISEMMEREMGTEKGNIDPTYLTHAARKNLREKFLHADVAMTGANFAVASTGEIVVCTNEGNADMGTSFPKVHIATMGMEKIVPNLEALGVFTRLLARSGTGQPITSYTSHYRRPPEGQEFHIIIVDNGRSDILAKPDHIRTLNCIRCGECMNTCPVYRRSGGYSYTYFIPGPIGINLGMLRNPEEYSDNVSACSLCLSCSNVCPVKIDLGEQIYRWRQDLDKIGKASKEKKVMSFGMKFLMERSGLFNTALKFAPVVNHLPRFMVYNGLNAWGKGRELPAFAKESFNDMWKNNKVR | not soluble
MSLSLRVRQIDRREWLLAQTATECQRHGREATLEYPTRQGMWVRLSDAEKRWSAWIKPGDWLEHVSPALAGAAVSAGAEHLVVPWLAATERPFELPVPHLSCRRLCVENPVPGSALPEGKLLHIMSDRGGLWFEHLPELPAVGGGRPKMLRWPLRFVIGSSDTQRSLLGRIGIGDVLLIRTSRAEVYCYAKKLGHFNRVEGGIIVETLDIQHIEEENNTTETAETLPGLNQLPVKLEFVLYRKNVTLAELEAMGQQQLLSLPTNAELNVEIMANGVLLGNGELVQMNDTLGVEIHEWLSESGNGEEGHHHHHH | soluble
MIPVTRMAVGKGTVSTRIKGLRGRRPSSFADILRPVVFWNITRACNLKCIHCYISAGPHPLPGELSTEEALGVARQLVEHGVPLVTLSGGEPLVRRDFWAIAKALSGHDTPKLALSSNGTLITRETAARLRRLGFSYVGISLDSVDPGVHDKFRGAPGAFKAAIRGARNALEEGLDVGFRLTITKYNLDDAPRIIRLASDMGVPRVAIYVVDLLGRATPDLAPSPEDLRRAIDAILEESVRHQDRVEVLLVRANFAGVYLADRLAKTRDEFLQLLSLVGSHGDCGRKSVSIYPDGTVRPCQFLEEVVIGDLRRQRLGEILSADNPLLKPFIAVDTMLRGPKCGGCPFKRVCGGGSRMRALKTTGEFWGDDPLCFIDPWSIARRWGYSAG | not soluble
MGSDKIHHHHHHMQQFPRLARVGLGFRRELIPALKSGVPATIDFFEIAPENWIDLGGGAARDLLFFTERYPFVCHGLSLSIGGPAPLDEILLQKIRQFLDQHRVLLYTEHLSYCSDDGHLYDLLPIPFTEEAVKYVAERVRRTQDILERRIALENASFYVASPISDMSELDFIRAVLLEADCDLHLDVNNVYVNSINHDYDPVDFIRALPSDRIVYMHMAGHHKEAENLIIDTHGADVIDPVWSLLDQTYGMHGVAPTLLERDFNIPPLEQLMREVLHIALIQAQHADSGDASAT | not soluble
MGSDKIHHHHHHMSAPDSAPGTERGHERTHFAVVGDSQDPAQATAPRAPAESITLIGIGTDGFEGLGLKAQQALQRASVVIGSWRQLNLVPDAIKAERRPWPGNTKHPDLDALFKEFLGRHVAVLASGDPLFYGVGTAMVHVLGMDRLTVIPGPSSASLACARLGWTVNRTRVVYLGQEPIETLIPIIESGAQFLVLGKDEFSTAQVATLLNELGLGETPLTVLSDLGSTDEEITQGTASHPPAAVSVLNVIAVGARTAMPKPHFEGDVSNEDLRALTVAALEPTQGQMLWTFGDIGAALACDWLRAAGNKAHAISFASMVEQSQRNARKLGVSTLSVKETLSPKTLKDIRYVQGPESASPHAIFMNKGLGIDLVPETAWMMLRPGGKLIAQASTEDNIAKLHTLQEQHGGIIKHIRIDDTDVHQWRVTKPVTPEAVN | not soluble
MDTTKTIAALFDFDGVIMDTETQYTVFWDEQGRKYLNEEDFGRRIKGQTLTQIYEKYFSDLPEAQQEITAGLNIYEKSMSYEYIPGVEAFIADLRKHGAKIAVVTSSNEEKMQNVYNAHPEFKGMVDRILTGEMFARSKPAPDCFLLGMEIFGATPENSYVFEDSFHGLQAGMTSGATVIGLATTNTREAITGKAHYIIDDFSEMTFEHLLALHR | not soluble
MSLHMSQTTQTDIITLGAVAAKIPQLIPKVPHLLNGLKQAYLRTPSTPAGLGIAFEKAVKRNPDGMALLFEDERYSYQELNEWANQIAHFYLSLGARKGDVIAVMVENRSELLATIVALAKIGVTAALVNTSQTGKVLTHSINLVQPIALIVGEEVRKCVDEIKQDLNLAQDRFHWFANQATRQDAGSAPRDYINLAEKIDHFPKFNPPTTQTVQGKDGLFYIYTSGTTGLPKAVIFTHSRWTLAYGTYGHVLALDENDVMYVTLPMYHATGIVVCWCGVIAGSATLALRRKYSTSAFWKDVQKFNASAIGYVGELCRYLMDAPPSELDRHHRVTKMIGNGMRPNIWDKFKQRFGVKEILELYASSEGNVGFSNIFNFDNTVGFSPTPYAVIAFDKEKNEPIRDQNGYCQKVKTGEVGLLVGKITRRSPFDGYTDPEKNKSVILKNVFKKGDSYFNTGDLVRDIGFRHAQFVDRLGDTFRWKGENVSTTEVENMLCEYEKIVEAVVYGVEIPNTNGRAGMAAITLNDQAEFNDEDMSAMVNTFKKCLPAYAIPVFLRVQKTVETTGTFKYQKNKLKEQAFDPSKTEERLLVLLPGESAYCEVTSEIFDNIQAYKYREGHHHHHH | soluble
